The target of assay [1] is His-tagged DC-UbP (human) (UniProt Q8WUN7). Put plainly: NMR titration; 15N-labelled DC-UbP (100 uM) titrated stepwise with unlabelled USP5, UbE1, FH or SCCH; 1H-15N HSQC, 20 mM phosphate, 50 mM NaCl, pH 6.5, 298 K.
The target of assay [2] is UbP_C (C-terminal part of DC-UbP, residues 129-234), His-tagged (human) (UniProt Q8WUN7). Briefly: NMR titration; 15N-labelled UbP_C (200 uM; 150 uM for the affinity) titrated with USP5_UBA12 or USP5_ZnF; 1H-15N HSQC, 20 mM phosphate, 50 mM NaCl, pH 6.5, 298 K.

Usually Kd stands for the equilibrium constant for the complex coming apart. The low end stands for tighter binding, the high end for weaker binding.

Sequence of His-tagged DC-UbP (human) (Q8WUN7 whole entry, the tested form may be a part): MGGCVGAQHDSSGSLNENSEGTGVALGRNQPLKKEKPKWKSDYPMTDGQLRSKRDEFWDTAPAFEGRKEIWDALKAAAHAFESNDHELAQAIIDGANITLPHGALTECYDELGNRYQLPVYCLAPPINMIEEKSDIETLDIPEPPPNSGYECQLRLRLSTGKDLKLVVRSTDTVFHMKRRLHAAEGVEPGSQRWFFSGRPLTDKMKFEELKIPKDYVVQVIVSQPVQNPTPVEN
Sequence of UbP_C (C-terminal part of DC-UbP, residues 129-234), His-tagged (human) (Q8WUN7 129-234): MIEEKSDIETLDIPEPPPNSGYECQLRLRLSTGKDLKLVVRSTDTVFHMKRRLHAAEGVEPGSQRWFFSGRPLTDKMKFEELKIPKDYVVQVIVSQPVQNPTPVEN

For the substance “USP5, recombinant, purified (from UniProt P45974 1-858) (enzyme)”, in assay [1], the mean relative peak intensity of the UBD domain of DC-UbP at 1:1 molar ratio (free DC-UbP = 1) was 0.56 and the mean relative peak intensity of the UbL domain of DC-UbP at 1:1 molar ratio (free DC-UbP = 1) came out at 0.27.
Consider “USP5_UBA12 (tandem UBA domains of USP5, residues 625-749) (from UniProt P45974 625-749) (domain or fragment)”, for which the Kd in assay [2] is 400 µM.

These data come from PMC4160250.
